Results on 1 variant are retold here after IntAct's records for PubMed 17711851.

Sequences and labels used below:
B1: Golgi resident protein GCP60 (Homo sapiens), Q9H3P7 (parent)
chain: MAAVLNAERLEVSVDGLTLSPDPEERPGAEGAPLLPPPLPPPSPPGSGRGPGASGEQPEPGEAAAGGAAEEARRLEQRWGFGLEELYGLALRFFKEKDGKAFHPTYEEKLKLVALHKQVLMGPYNPDTCPEVGFFDVLGNDRRREWAALGNMSKEDAMVEFVKLLNRCCHLFSTYVASHKIEKEEQEKKRKEEEERRRREEEERERLQKEEEKRRREEEERLRREEEERRRIEEERLRLEQQKQQIMAALNSQTAVQFQQYAAQQYPGNYEQQQILIRQLQEQHYQQYMQQLYQVQLAQQQAALQKQQEVVVAGSSLPTSSKVNATVPSNMMSVNGQAKTHTDSSEKELEPEAAEEALENGPKESLPVIAAPSMWTRPQIKDFKEKIQQDADSVITVGRGEVVTVRVPTHEEGSYLFWEFATDNYDIGFGVYFEWTDSPNTAVSVHVSESSDDDEEEEENIGCEEKAKKNANKPLLDEIVPVYRRDCHEEVYAGSHQYPGRGVYLLKFDNSYSLWRSKSVYYRVYYTR
partner: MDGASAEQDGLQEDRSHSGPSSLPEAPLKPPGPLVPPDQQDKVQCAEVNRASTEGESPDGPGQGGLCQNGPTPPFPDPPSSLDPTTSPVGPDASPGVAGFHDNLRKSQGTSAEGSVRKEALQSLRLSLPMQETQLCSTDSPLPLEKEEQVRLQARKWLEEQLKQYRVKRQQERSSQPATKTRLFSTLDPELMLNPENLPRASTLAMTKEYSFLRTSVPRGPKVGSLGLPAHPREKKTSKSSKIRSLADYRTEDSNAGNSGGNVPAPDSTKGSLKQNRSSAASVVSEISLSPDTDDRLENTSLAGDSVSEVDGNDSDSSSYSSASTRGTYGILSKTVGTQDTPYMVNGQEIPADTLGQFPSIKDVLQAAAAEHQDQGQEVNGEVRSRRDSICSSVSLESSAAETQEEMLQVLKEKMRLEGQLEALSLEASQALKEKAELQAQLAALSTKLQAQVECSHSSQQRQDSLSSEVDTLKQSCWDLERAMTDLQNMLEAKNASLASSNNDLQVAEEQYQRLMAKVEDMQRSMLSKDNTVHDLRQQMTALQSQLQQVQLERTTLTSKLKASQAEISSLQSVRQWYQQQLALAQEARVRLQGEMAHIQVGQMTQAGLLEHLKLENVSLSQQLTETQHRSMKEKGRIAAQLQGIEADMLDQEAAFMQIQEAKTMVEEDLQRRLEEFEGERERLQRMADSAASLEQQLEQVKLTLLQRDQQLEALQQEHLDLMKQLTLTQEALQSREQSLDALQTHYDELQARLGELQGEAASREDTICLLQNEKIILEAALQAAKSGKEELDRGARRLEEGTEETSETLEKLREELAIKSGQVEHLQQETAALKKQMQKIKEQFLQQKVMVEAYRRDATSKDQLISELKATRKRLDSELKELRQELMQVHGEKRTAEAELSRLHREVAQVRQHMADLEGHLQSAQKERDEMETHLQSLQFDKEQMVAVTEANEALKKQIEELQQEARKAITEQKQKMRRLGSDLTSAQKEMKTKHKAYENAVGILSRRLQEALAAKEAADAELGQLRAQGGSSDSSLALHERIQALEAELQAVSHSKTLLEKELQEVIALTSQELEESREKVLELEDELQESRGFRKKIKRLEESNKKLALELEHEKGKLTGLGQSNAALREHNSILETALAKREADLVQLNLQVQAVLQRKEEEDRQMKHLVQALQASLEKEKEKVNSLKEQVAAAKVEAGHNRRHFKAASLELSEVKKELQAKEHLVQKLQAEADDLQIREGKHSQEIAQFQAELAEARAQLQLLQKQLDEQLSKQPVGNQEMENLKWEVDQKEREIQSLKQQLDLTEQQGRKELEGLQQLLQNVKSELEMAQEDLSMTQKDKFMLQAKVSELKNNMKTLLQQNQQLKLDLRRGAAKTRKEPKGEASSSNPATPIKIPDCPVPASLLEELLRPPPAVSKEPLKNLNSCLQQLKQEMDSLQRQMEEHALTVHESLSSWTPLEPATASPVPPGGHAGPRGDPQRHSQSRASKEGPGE

In the experiment the parent is B1. Particulars: with goga3_human GOLGA3, Q08378.
In the case of C463S, the “effect of a mutation on the interaction” value is reported as “disrupting interaction”.
